Data published in article doi:10.1101/008359, “TACC3–ch-TOG track the growing tips of microtubules independently of clathrin and Aurora-A phosphorylation” (bioRxiv, 2014).

B1: His-NusA-TACC3(629-838) (domain or fragment)
chain: not shown
notes: Held on Ni Sepharose beads by the His tag; source: recombinant, expressed and purified as stated in earlier work [11]; not shown: His, N-terminal, kept; NusA, N-terminal, kept
B2: TACC3(629-838) (domain or fragment)
chain: not shown
notes: source: recombinant, expressed and purified as stated in earlier work [11]

Experiments:
ch-TOG(1517-1957) = target: T1, ch-TOG(1517-1957) (UniProt Q14008 1517-1957); test: pull-down; His-NusA-TACC3(629-838) bound to Ni Sepharose beads and incubated with ch-TOG proteins; His-NusA as tag binding control; conditions: both partners purified
T1 construct: source: recombinant, expressed and purified as stated in earlier work [11]

[1] = target: T2, His-NusA-ch-TOG(1517-1957) wild type (UniProt Q14008 1517-1957); test: pull-down; His-NusA-ch-TOG(1517-1957) wild type and mutant proteins bound to Ni Sepharose beads, then incubated with TACC3(629-838); SDS-PAGE and Western blot with anti-TACC3 TACC domain antibody; His-NusA as tag binding control; conditions: both partners purified
T2 construct: held on Ni Sepharose beads by the His tag; source: recombinant, expressed and purified as stated in earlier work [11]; not shown: His, N-terminal, kept; NusA, N-terminal, kept
T2 sequence (Q14008 1517-1957): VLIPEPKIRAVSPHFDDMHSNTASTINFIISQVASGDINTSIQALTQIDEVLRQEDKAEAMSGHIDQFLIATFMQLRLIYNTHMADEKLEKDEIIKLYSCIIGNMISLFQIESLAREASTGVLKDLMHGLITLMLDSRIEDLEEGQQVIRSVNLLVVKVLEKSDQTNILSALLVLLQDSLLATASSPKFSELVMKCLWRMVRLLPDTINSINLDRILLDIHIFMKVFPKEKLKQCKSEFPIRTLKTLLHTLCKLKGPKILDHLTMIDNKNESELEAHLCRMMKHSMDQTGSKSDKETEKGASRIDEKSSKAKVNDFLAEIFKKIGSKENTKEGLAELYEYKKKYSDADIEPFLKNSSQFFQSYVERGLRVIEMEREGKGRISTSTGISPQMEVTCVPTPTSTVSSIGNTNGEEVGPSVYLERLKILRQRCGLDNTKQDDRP

T1 sequence (Q14008 1517-1957): as above

Binder | binding result (ch-TOG(1517-1957)) | binding result [1]
B1 | binds | 
B2 |  | binds
